Test: yeast display, Sf9 membrane polyspecificity reagent, FACS + sequencing; frameworks hold sequencing errors
In short: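 Synthetic nanobody libraries on Saccharomyces cerevisiae BJ5465 were galactose-induced for 36–48 hours, stained 1 hour at 4 °C with 10% biotinylated, detergent-solubilized Sf9 membrane reagent and enriched on streptavidin microbeads. FACS then separated cells into low and high (top ~1%) gates by anti-HA (expression) and streptavidin (reagent binding) fluorescence. Genes were colony-PCR amplified, MiSeq 2 × 250 sequenced and CDR-length filtered. A clone's polyreactivity label is that of its gate of origin.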

| Sequence | polyreactivity (PSR sort gate) |
| --- | --- |
| QVQLVESGGGLVKAGGSLRLSCAASGFNFSSYALGWYRPAPGKERELVAAISYSGGSTYYADSVKGRFTISRDNAKNTVYLQMNSLKPEDTAVYYCNKLRGYGLRYIVSLDYWGQGTQVSVSS | high polyreactivity |
| QVQLVESGGGLVKAGGSLRLSCAASGNIFYINTMGWYRQAPGKERELVAAIDASYGSTYYADSVKGRFTISRDNAKNTVYLQMNSLKPEDTAVYYCATSRGYDSVYYFYTLWYYYWVQGTQVTVSS | low polyreactivity |
| QVQLVESGGGLVKAGGSLRLSCAASGRIFNYYAMGWYRQAPGKERELVAAISSVGSTNYADSVTGRFTISRDNAKNTVYLQMISLKPEDTAVYYCAAPYQHYDVNYDSWGQGTQVTVSS | low polyreactivity |
| QVQLVESGGGLVKAGGSLRLSCAASGRTFLRNAMGWYRQAPGKERELVATITRGGSTYYADSVKGRFTISRDNAKNTVYLQMNSLKPEDTAVYYCAKDITGGFRRPDYGYWGHGTQVTVSS | low polyreactivity |
| QVQLVESGGGLVKAGGSLRLSCAASGRTFRYYDMGWYRQAPGKESELVAAIRTRGASTYYADSVKGRFTISRDNAKNTVYLQMNSLNPEDTAVYYCAKRAHFSSARHVYYIYDYWGQGTQVTVSS | low polyreactivity |
| QVQLVESGGGLVKAGGSLRLSCAASGSIFKGNVMGWYRQAPGKERELVAGINWSSGRTYYADSVKGRFTISRDNAKNTVYLQMNSLNPEDTAVYYCNAPQYFSYSWPYPREYDYWGQGTQVNVSS | high polyreactivity |
| QVQLVESGGGLVKAGGSLRLSCAASGSIGSYAMGCYRQAPGKERELVAAISSRGGSTYYADSVKGRFTISRDNAKNTVYLQMNSLKPEDTAFYYCAADYRGRYYSKYYYWGQGTQVTVSS | high polyreactivity |
| QVQLVESGGGLVKAGGSLRLSCAASGSISAGNAMGWNIHAPGKERELVAAISGSGGSTFYADSVKGRFTISRYNAKNSVYLQINSLKPEDTAVYYCAARGGYRLRYIPYVRYDYWGQGTQVTVSS | high polyreactivity |
| QVQLVESGGGLVKAGGSLRLSCAASGSNFTFYAMGWYRQAPGKVRELDATISLRGGRKYYADSVKGRFTISRDNAKNTVYLQMNSLKPEDTAVYYCNAPAYYGGYRFRGYNYWGQGTQVTVSS | high polyreactivity |
| QVQLVESGGGLVKAGGSLRLSCAASGSTFRKYAMGWYRQAPGKEREFVAAISSSGGRTYYADSVKGRFTISRDNAKNTVYFLMNSLKPEDTAVYYCNSYFRYSNDYWGQGTQVTVSS | high polyreactivity |
| QVQLVESGGGLVKAGGSLRLSCAASGSTFSRYAMGWYRQAPGKEREFVADITFRTSSTNYADSVKGRFTISRDNAKNTVYLQMNSLKPEDPAVYYCATDTQYKSYAHDYWGQGTQVTVSS | low polyreactivity |
| QVQLVESGGGLVKAGGSLRLSCAPSGSSFYYAMGWYRQAPGKERELVAAINSGGSTNYADSVKGRFTISRDNAKNTVYLQMNSLKPEDTAVYYCAADLYGYWWSFDYDYWGQGTQVTVSS | low polyreactivity |
| QVQLVESGGGLVKAGGSLRLSCDASGLTFNANPMGWYRQEPGKESELVAAIDWIGVSTYYADSVKGRFTISRDNAKNTVYLQMNSLKPEDTAVYYCAAEYDYNFGGNDLWYYYWGQGTQVTVSS | high polyreactivity |
| QVQLVESGGGLVKAGGSLRLSFAAYGSNFPRYALGWYRQATGKERELVASITSDGGSTYYADSVKGRFTISRDNAKNTVYLQMNSLKPEDTAVYYCNKVPYRGYRRYGYWGQGTQVTVSS | high polyreactivity |
| QVQLVESGGGLVKAGGSLRLSSAASGRTFKWYAMGWSRQAPGKERELVAVITGRGGSTYYADSVKGRFTISRDNAKNTVYLQMNSLKPEDTAVYSCAARGYSLVASSLYYYWGQGTQVTVSS | high polyreactivity |
| QVQLVESGGGLVKAGGSLRLSSDASGSISKSYAMGWYRQAPGKERELVAVITSGGNTYYADSVKGRFTISRDNAKNTVYLQMNSLKPEDTAVYYCAAKSGRGRTMDYWGQGTQVTVSS | high polyreactivity |
| QVQLVESGGGLVKAGGSLRLTCAASGRIFVNYAMGWYRQAPGKEMELVAAINWSGGRTYYADSVKGRFTISRDNAKNTVYLQMNSLKPEDTAVYYCAAEWEGTYTTVPDEFNYWGQGTQVTVSS | high polyreactivity |
| QVQLVESGGGLVKAGGSLSLSCAASGFIFVNNVMGWYRQAPGKERELVAAISRRGGSTYYADSVKGRFTISRDNAKNTVYLQMNSLKPEDTAVYYCARRGPDFSWKYDYWGQGTQVTVSS | high polyreactivity |
| QVQLVESGGGLVKARGSLRLSFAASGSTFLVYAMGWYRQAPGKEREFVAAITWSGGYTYYADSVKGRFTISRDNAKNTVYLQMNSLKPEDTSVYYSAAEIQRTYSWEYPYEMYWGQGTQVTVSS | high polyreactivity |
| QVQLVESGGGLVLAGGRLRLSCAASGRTFYVYTMGWYRQAPGKEWELVAGISYSGGSTYYADSVMGRFTISRDNAKNTVYLQMNSLKPEDTAVYYCNAELYCPYFDGKTRHGGYWGQGTQVTVSS | low polyreactivity |
| QVQLVESGGGLVLAGGSLRLSCAASGFTFFIYVMGWYRQAPGKEREFVAAISSSGDSTYYADSVKGRFTISRDNAKNTVYLQMNSLKPEDTAVYYCNAGDKFSSYWYDYWGQGTQVTVSS | low polyreactivity |
| QVQLVESGGGLVLAGGSLRLSCAASGFTFRKNAMGWYRQARGKERELVAAINSSGGSTYYADSVKGRFTISRDNAKNTVYLQMNSLKPEDTAVFYCNAVGRSLARPRGDYWGQGTQVTVSS | high polyreactivity |

| Sequence | polyreactivity (PSR sort gate) |
| --- | --- |
| QVQLVESGGGLVLAGGSLRLSCAASGNILIGNVMGWYRPAPGKERELVAAITSGGDTYYADSVKGRFTISRDNAKNTVYLQMNSLNPEDTAVYYCAADRPGQPKYEYWRQGTQVTVSS | low polyreactivity |
| QVQLVESGGGLVLAGGSLRLSCAASGRIFRGYAMGWYRQAPGKERELVAGITWGAGRTYYADSVKGRFTISRDNAKNTVYLQMNSLKPEDTAVYYCAAYYSQDSRRKYDYWGQGTQVSVSS | high polyreactivity |
| QVQLVESGGGLVLAGGSLRLSCAASGRIFRWYAMGWYRQAPGKERELDATISSTGGSTYYADSVKGRFTISRDNAKNTVYLQMNSLKPEDTAVYYCNAVVYGIFLYAWYDYWGQVTQVTVSS | low polyreactivity |
| QVQLVESGGGLVLAGGSLRLSCAASGRTFIGYALGWYRQAPGKERELVAAISPGGSTKYADSVKGRFTISRDNAKNTVYLQINSLKPEDNAVYYGAVGWSYYAGLRHRYYSGFDYWGQGTQVTVSS | low polyreactivity |
| QVQLVESGGGLVLAGGSLRLSCAASGRTFKENAKGWYRQAPGKARELVAVINSGGRTYYAVSVKGSFTISRDNAKNTVYLQMNSLKPEDSAVYYCAAYSRSKESGYWGQGTQVTVSS | high polyreactivity |
| QVQLVESGGGLVLAGGSLRLSCAASGRTYYAYTMGWYRKAPRKERELVAAISGSGSTTYYADSVKGRFTISRDNAKNTVYLQMNSLKPEDTAVFYCAADFFAGTQRTFDYWGQGTQVTVSS | high polyreactivity |
| QVQLVESGGGLVLAGGSLRLSCAASGSIFGGYAMGWYRPAPGKERELVAAISSGDSTYYADSVKGRFTISRDNAKNTVYLQINSLKPEDTAVYYCAAAFFARDRKRYNYWGQGTQVTVSS | high polyreactivity |
| QVQLVESGGGLVLAGGSLRLSCAASGSIFKNYAMGWYGQAPGKVRELVAAITRGTYYADSVKGRFTISRDNAKNTVYLQMNSLKPEDTAVYYCNREYWGRGYYRVRGEYDYWGQGTQVTVSS | low polyreactivity |
| QVQLVESGGGLVLAGGSLRLSCAASGSILTFYAMGWYRQAPGKERELVARITLIVARTNYADSVKARFTISRDNAKNTVYLQMNSLKPEDTAVYYCAKRDGDSGIGFGYWGQGTQVTVSS | low polyreactivity |
| QVQLVESGGGLVLAGGSLRLSCAASGSTFVQNAMGWYRQAHGKERELVAAITFGGGSTYYADSVKGRFTISRDNAKNTVYLQMNSLKPEDTAVYYCAVEVGNPQLAYSYDYWGQGTQVTVSS | low polyreactivity |
| QVQLVESGGGLVLAGGSLRLSCAASGSTFVYYAMGWYRQAPGKERELVAAISRSGGSTYYADSVKGRFTISRDNAKNTVYLQMNSLKPEDTAVYYCAAKVRFTRRYDYWGQGTQVTVSS | high polyreactivity |
| QVQLVESGGGLVLAGGSLRLSCPASGSIFGGYAMGWYRQAHGKERELVAAISYRGASTYYADSVKGRFTISRDNAKNTVYLQMNSLKPEDTAVYYCAVAARTRARVLYGYDYWGQGTQVTVSS | low polyreactivity |
| QVQLVESGGGLVPAGGSLRLSCAASGFIFHGYAIGWYREAPGKEMELVAAISGTGGSTYYADSVKGRFTISRDNAKNTVYLQMNSLKPEDTAVYYCNARRVRSDRRGGDYWGQGTQVTVSS | high polyreactivity |
| QVQLVESGGGLVPAGGSLRLSCAASGLTFGRYAMRSYRQAPGKEREMVARISRSGGRTYYADSVKGRFTISRDNAKNTVYLQMNSLKPEDTAVYYCAATGSYYGGDHDYWGQGTQVTVSS | high polyreactivity |
| QVQLVESGGGLVPAGGSLRLSCAASGLTIYHYAMGWYRQAPGKERELVAAISYSGGSTYYADSVKGRFTISRDNAKNTVYLQMNSLKPEDTAVYYCAAYARHYGTSSLRYDYWGQGTQVTVSS | high polyreactivity |
| QVQLVESGGGLVPAGGSLRLSCAASGRIYARNAMGWYRKAPGKERDLVAAISSRGSSTYYADSVKGRFTISRDTAKNTVSLQMNSLKPEDTAVYYCNAYYSVYPPGYDYWGQGPQVTVSS | high polyreactivity |
| QVQLVESGGGLVPAGGSLRLSCAASGRSLSRYTMGWYRQAPGKERELVAAISTSGSTYYADSVKGRFTISRDNAKNTVYLQMNSLKPEDTAVYFCNAVRRYLQYATGYAYWGQGTQVTVSS | high polyreactivity |
| QVQLVESGGGLVPAGGSLRLSCAASGRTFRFNAMGWYRQAPGKERELVAAITKSSGSTDYADSVKGRFTISRDNAKNTVYLQMNSLKPEDSAVYYCAVRIFVPYYSDWSFPTQYNYWGQGTQLTVSS | high polyreactivity |
| QVQLVESGGGLVPAGGSLRLSCAGSGFIFYKYAMGWYRQAPGKERELVAAITRGGSTNYADSVKGRFTSSRDKAKNTVYLQMNSLKPEDTAVYYCAAGNRYGVRQLYQIVTRYYWGQGTQVTVSS | high polyreactivity |
| QVQLVESGGGLVPAGGSLRLSWAASGRTFTRNAMGWYRQAPGKERELVAVITSSGRTNYADSVKGRVTISRDNAKNTVYLQMNSLKPEDTAVYYCNKVSARYPYPLYDYWGQGTQVTVSS | high polyreactivity |
| QVQLVESGGGLVPARGSLRLSCAASGFIFSDNAMGWYRQAPGKERELVAAITDDGDTTYYADSVKGSFTISRDNAKNTVYLQMISLKPEDTAVYYCATEIEDVEDSGPYYYVGYGYWGQGTQVTVSS | high polyreactivity |
